The results in this text go back to publication PMC12135937.

Experiment in all cases: SPR; Biacore T100, CM4 chip; DIPs immobilised by amine coupling (700-900 RU), monomeric Dpr analytes in 3-fold dilution series (0.012 to 9, 27 or 81 µM); 25 °C; 10 mM Tris-HCl pH 7.2, 150 mM NaCl, 1 mM EDTA, 1 mg/mL BSA, 0.01% Tween-20; equilibrium responses fit to a 1:1 model
(In SPR one partner is held on a chip, and binding of the other changes the refractive index at the surface.)

Assay [1] addresses DIP-λ (Drosophila melanogaster).
For assay [2], the target named is DIP-α (Drosophila melanogaster) (UniProt Q9W4R3).
Assay [3] has as its target DIP-β isoform C (Drosophila melanogaster).

Sequence of DIP-λ (Drosophila melanogaster) (main, as listed by the source): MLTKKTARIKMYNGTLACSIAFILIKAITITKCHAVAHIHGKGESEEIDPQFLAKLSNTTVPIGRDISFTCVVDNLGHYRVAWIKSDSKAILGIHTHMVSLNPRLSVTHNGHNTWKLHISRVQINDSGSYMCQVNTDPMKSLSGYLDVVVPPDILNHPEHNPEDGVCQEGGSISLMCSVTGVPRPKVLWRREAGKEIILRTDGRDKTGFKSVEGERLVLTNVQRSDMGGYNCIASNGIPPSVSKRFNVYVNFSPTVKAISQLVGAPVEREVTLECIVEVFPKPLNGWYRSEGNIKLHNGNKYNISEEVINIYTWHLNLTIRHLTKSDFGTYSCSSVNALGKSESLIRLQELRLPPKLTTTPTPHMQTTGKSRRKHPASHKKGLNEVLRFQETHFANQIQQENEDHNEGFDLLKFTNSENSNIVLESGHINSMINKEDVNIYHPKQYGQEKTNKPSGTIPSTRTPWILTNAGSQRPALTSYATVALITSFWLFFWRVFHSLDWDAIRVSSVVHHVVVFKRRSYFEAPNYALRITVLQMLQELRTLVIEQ
Sequence of DIP-β isoform C (Drosophila melanogaster) (main, as listed by the source): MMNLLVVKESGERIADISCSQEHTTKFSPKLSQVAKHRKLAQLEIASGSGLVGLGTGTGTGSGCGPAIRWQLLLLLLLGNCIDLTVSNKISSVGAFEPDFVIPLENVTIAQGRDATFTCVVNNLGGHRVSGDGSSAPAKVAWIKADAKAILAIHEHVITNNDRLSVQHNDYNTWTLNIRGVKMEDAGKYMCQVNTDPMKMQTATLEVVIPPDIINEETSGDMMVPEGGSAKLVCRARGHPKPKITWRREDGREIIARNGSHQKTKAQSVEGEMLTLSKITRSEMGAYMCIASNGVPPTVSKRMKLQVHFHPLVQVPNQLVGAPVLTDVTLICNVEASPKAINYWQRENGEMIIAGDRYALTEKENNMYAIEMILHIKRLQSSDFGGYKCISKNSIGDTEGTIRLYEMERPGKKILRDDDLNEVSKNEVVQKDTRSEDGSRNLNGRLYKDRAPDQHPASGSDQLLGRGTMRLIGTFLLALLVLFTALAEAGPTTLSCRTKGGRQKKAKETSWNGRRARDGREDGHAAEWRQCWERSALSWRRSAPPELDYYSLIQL
Sequence of DIP-α (Drosophila melanogaster) (Q9W4R3 entry or part of it): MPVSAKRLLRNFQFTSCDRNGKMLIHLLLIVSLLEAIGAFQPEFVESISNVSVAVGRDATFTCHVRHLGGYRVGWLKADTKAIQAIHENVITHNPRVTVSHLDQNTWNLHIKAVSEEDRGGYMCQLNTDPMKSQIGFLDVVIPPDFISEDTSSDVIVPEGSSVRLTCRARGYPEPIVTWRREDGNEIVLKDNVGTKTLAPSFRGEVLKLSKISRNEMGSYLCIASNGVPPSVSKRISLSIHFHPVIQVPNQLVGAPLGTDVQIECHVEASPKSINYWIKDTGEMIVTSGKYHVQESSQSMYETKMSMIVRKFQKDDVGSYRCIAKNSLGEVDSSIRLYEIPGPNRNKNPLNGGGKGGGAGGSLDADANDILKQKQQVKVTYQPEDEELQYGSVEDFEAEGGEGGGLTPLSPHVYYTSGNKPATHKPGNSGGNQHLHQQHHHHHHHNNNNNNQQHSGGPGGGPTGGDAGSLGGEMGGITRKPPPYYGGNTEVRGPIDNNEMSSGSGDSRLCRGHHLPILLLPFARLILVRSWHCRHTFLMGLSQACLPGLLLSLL

B1: Dpr10 isoform A (domain or fragment)
chain: WNEPYFDLTMPRNITSLVGKSAYLGCRVKHLGNKTVAWIRHRDLHILTVGTYTYTTDQRFQTSYHRDIDEWTLQIKWAQQRDAGVYECQISTQPVRSYSVNLNIVDLIDAETSDIMQQYYNDDAFYIAENRVYQSSNDEFAGMFGPIQTVAVPTATILGGPDLYVDKGSTINLTCIIKFSPEPPTHIFWYHQDKVLSEETSGGRLKFKTIKSEETKSILLIYDADLLHSGKYSCYPSNTEIASIRVHVLQGE
Take B1: the results for the equilibrium dissociation constant (Kd) in assay [1], in assay [2] and in assay [3] were 5.84 µM, 1.34 µM and 84 µM, respectively.

A word on the Kd: it is the concentration at which binding is half-saturated. The low end stands for a tighter complex, the high end for a looser complex.
